System: Escherichia coli TOP10
Assay: shrunken log2 fold change of peptide-encoding DNA abundance (4.5 h post-induction vs induction); higher = less antimicrobial activity (less host growth inhibition)
Conditions: time post-induction: 4.5 h; library: site-saturation at positions 5, 18, 19, 20
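Note: peptides expressed intracellularly from a pBAD plasmid library in pooled LB shake-flask culture, induced with 0.3% L-arabinose, DNA abundance read by NGS, three biological replicates, DESeq2 with apeglm shrinkage.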

Row | Sequence | shrunken log2 fold change
1 | RRIRMRPPRLPRPRPRPCFQPRP | -0.0397
2 | RRIRQRPPRLPRPRPRPNKFPRP | -0.896
3 | RRIRPRPPRLPRPRPRPYGCPRP | -0.0896
4 | RRIRNRPPRLPRPRPRPDHNPRP | -0.245
5 | RRIRVRPPRLPRPRPRPPGPPRP | 0.533
6 | RRIRWRPPRLPRPRPRPCGFPRP | 0.395
7 | RRIRCRPPRLPRPRPRPWSRPRP | -0.391
8 | RRIRQRPPRLPRPRPRPACQPRP | 0.15
9 | RRIRMRPPRLPRPRPRPITLPRP | -0.521
10 | RRIRCRPPRLPRPRPRPFPFPRP | -0.353
11 | RRIRNRPPRLPRPRPRPVHDPRP | 0.068
12 | RRIRERPPRLPRPRPRPNMDPRP | -0.209
13 | RRIRSRPPRLPRPRPRPQWPPRP | 0.121
14 | RRIRARPPRLPRPRPRPTRKPRP | 0.574
15 | RRIRMRPPRLPRPRPRPDPPPRP | 1.23
16 | RRIRARPPRLPRPRPRPSIYPRP | -0.404
17 | RRIRPRPPRLPRPRPRPVGAPRP | 0.561
18 | RRIRMRPPRLPRPRPRPQEKPRP | 0.01
19 | RRIRDRPPRLPRPRPRPNADPRP | 0.018
20 | RRIRVRPPRLPRPRPRPDDPPRP | 0.359
21 | RRIRMRPPRLPRPRPRPQHYPRP | -0.116
22 | RRIRFRPPRLPRPRPRPIDKPRP | -0.499
23 | RRIRMRPPRLPRPRPRPITHPRP | 0.0509

Row | Sequence | shrunken log2 fold change
24 | RRIRRRPPRLPRPRPRPTTSPRP | 0.591
25 | RRIRNRPPRLPRPRPRPHIVPRP | -0.249
26 | RRIRMRPPRLPRPRPRPMLMPRP | 0.0323
27 | RRIRERPPRLPRPRPRPFGSPRP | 0.0942
28 | RRIRLRPPRLPRPRPRPITTPRP | -0.283
29 | RRIRYRPPRLPRPRPRPILIPRP | -0.256
30 | RRIRVRPPRLPRPRPRPYKVPRP | -0.0222
31 | RRIRFRPPRLPRPRPRPEPKPRP | 0.415
32 | RRIRWRPPRLPRPRPRPFYHPRP | -0.0855
33 | RRIRERPPRLPRPRPRPNYIPRP | -0.672
34 | RRIRSRPPRLPRPRPRPGLMPRP | 0.197
35 | RRIRFRPPRLPRPRPRPLEHPRP | 0.0403
36 | RRIRERPPRLPRPRPRPHHVPRP | 0.00979
37 | RRIRSRPPRLPRPRPRPWAYPRP | -0.107
38 | RRIRDRPPRLPRPRPRPCYKPRP | 0.0316
39 | RRIRIRPPRLPRPRPRPMYWPRP | -0.291
40 | RRIRFRPPRLPRPRPRPVLEPRP | 0.00555
41 | RRIRQRPPRLPRPRPRPKMNPRP | -0.328
42 | RRIRNRPPRLPRPRPRPCWLPRP | -0.7
43 | RRIRLRPPRLPRPRPRPFLNPRP | -0.172
44 | RRIRARPPRLPRPRPRPDYLPRP | -0.805
45 | RRIRHRPPRLPRPRPRPQNMPRP | -0.731
46 | RRIRQRPPRLPRPRPRPLPHPRP | 0.137

Row | Sequence | shrunken log2 fold change
47 | RRIRARPPRLPRPRPRPFMAPRP | -0.163
48 | RRIRTRPPRLPRPRPRPHWPPRP | -0.078
49 | RRIRARPPRLPRPRPRPDKTPRP | -0.00345
50 | RRIRKRPPRLPRPRPRPDSRPRP | -0.188
51 | RRIRLRPPRLPRPRPRPNKWPRP | -0.066
52 | RRIRRRPPRLPRPRPRPAYEPRP | 0.138
53 | RRIRTRPPRLPRPRPRPAGKPRP | 0.196
54 | RRIRDRPPRLPRPRPRPSIHPRP | -0.123
55 | RRIRDRPPRLPRPRPRPSKFPRP | -0.105
56 | RRIRYRPPRLPRPRPRPYWVPRP | -0.538
57 | RRIRLRPPRLPRPRPRPYYRPRP | -0.043
58 | RRIRDRPPRLPRPRPRPMIIPRP | 0.248
59 | RRIRTRPPRLPRPRPRPWFRPRP | -0.128
60 | RRIRCRPPRLPRPRPRPWYDPRP | -0.0194
61 | RRIRERPPRLPRPRPRPMYDPRP | -0.266
62 | RRIRMRPPRLPRPRPRPDRMPRP | 0.422
63 | RRIRERPPRLPRPRPRPHEKPRP | -0.00663
64 | RRIRVRPPRLPRPRPRPNRIPRP | -0.0663
65 | RRIRQRPPRLPRPRPRPYWFPRP | 0.00499
66 | RRIRHRPPRLPRPRPRPPWVPRP | -0.101
67 | RRIRCRPPRLPRPRPRPRDDPRP | 0.274
68 | RRIRPRPPRLPRPRPRPTMRPRP | 0.744
69 | RRIRARPPRLPRPRPRPYKYPRP | -0.227

Row | Sequence | shrunken log2 fold change
70 | RRIRGRPPRLPRPRPRPHAQPRP | 0.868
71 | RRIRERPPRLPRPRPRPQDPPRP | -0.232
72 | RRIRERPPRLPRPRPRPRADPRP | 0.0209
73 | RRIRCRPPRLPRPRPRPGHLPRP | -0.0824
74 | RRIRSRPPRLPRPRPRPWKYPRP | 0.0245
75 | RRIRRRPPRLPRPRPRPNKPPRP | 0.101
76 | RRIRLRPPRLPRPRPRPRSQPRP | 0.19
77 | RRIRERPPRLPRPRPRPRAEPRP | -0.116
78 | RRIRTRPPRLPRPRPRPDCWPRP | 0.0105
79 | RRIRMRPPRLPRPRPRPGDDPRP | 1.96
80 | RRIRWRPPRLPRPRPRPAQLPRP | 1.63
81 | RRIRQRPPRLPRPRPRPHVVPRP | -0.086
82 | RRIRDRPPRLPRPRPRPSGMPRP | -0.0709
83 | RRIRPRPPRLPRPRPRPETAPRP | 0.396
84 | RRIRQRPPRLPRPRPRPKFFPRP | -0.0285
85 | RRIRYRPPRLPRPRPRPYRWPRP | -0.175
86 | RRIRERPPRLPRPRPRPKRHPRP | 0.0422
87 | RRIRVRPPRLPRPRPRPVGEPRP | 0.305
88 | RRIRFRPPRLPRPRPRPYMMPRP | -0.34
89 | RRIRLRPPRLPRPRPRPTIWPRP | 0.203
90 | RRIRDRPPRLPRPRPRPYQLPRP | -0.0742
91 | RRIRTRPPRLPRPRPRPILNPRP | -0.403

Source: the supplement of paper PMC9112550, “Optimization of the antimicrobial peptide Bac7 by deep mutational scanning” (BMC Biology, 2022)
